A word on the pKd: it is −log10 of the Kd, conventionally taken in molar units. A high value points to a small Kd.

Consider twelve substances from patent publication US20170281749A1.

pKd: −log10 of the molar value.

Assay [1] deals with CH505TF gp120 GCN4 Trimer. Put plainly: SPR.
Another assay addresses CH505TF gp140 Trimer. Put plainly: SPR. On the technique in general: Surface plasmon resonance follows binding to a sensor surface in real time, without labels.

Take 2G12 (-CHO): the figures for the pKd (in assay [1]; with CH505TF gp140 Trimer) were 6.77 and 8.19, respectively.
For 19b (V3), the pKd in assay [1] was 9.10; with CH505TF gp140 Trimer, 8.92.
For 697 D (V2), in that order: 6.26 and 6.77.
In the same order, the values of A32 (C1) are 8.54 and 8.52.
For CH01 (V1-V2), the negative-log Kd (pKd) in assay [1] is under 4.00.
Turning to CH58 (V2), the values for the pKd (in assay [1]; with CH505TF gp140 Trimer) were 6.98 and 7.22, respectively.
In the same order, the values of CH103_UCA (CD4 bs) are 7.84 and 7.44.
With CH106 (CD4 bs), the figures for the pKd (in assay [1]; with CH505TF gp140 Trimer) were 8.26 and 8.24, respectively.
As for F105 (CD4 bs), the negative-log Kd (pKd) in assay [1] was 7.39; with CH505TF gp140 Trimer it was 7.60.
For PG9 (V1-V2), in that order: 6.80 and 7.16.
In the same order, the values of PGT128 (-CHO) are 7.28 and 7.69.
Consider VRC01 (CD4 bs), for which the pKd in assay [1] is 8.60; in the assay with CH505TF gp140 Trimer, 8.62.
